Reference: US20170157250A1

Experiments:
[1] = biological target: human AXL (full length, on cells) (human (Homo sapiens)) (UniProt P30530); assay: flow cytometry, A431 cells, without Gas6; mean (s.d.)
[2] = biological target: human AXL (full length, on cells) (human (Homo sapiens)) (UniProt P30530); assay: flow cytometry, A431 cells pre-incubated with 10 µg/mL Gas6 (competitor)
[3] = biological target: human AXL (full length, on cells) (human (Homo sapiens)) (UniProt P30530); assay: flow cytometry, A431 cells pre-incubated with Gas6 (competitor); mean (s.d.)
[4] = biological target: human AXL (full length, on cells) (human (Homo sapiens)) (UniProt P30530); assay: flow cytometry, A431 cells pre-incubated with 10 µg/mL Gas6 (competitor); mean (s.d.)
[5] = biological target: human AXL (full length, on cells) (human (Homo sapiens)) (UniProt P30530); assay: flow cytometry, A431 cells pre-incubated with Gas6 (competitor); mean (s.d.); less accurate due to low binding
[6] = biological target: human AXL (full length, on cells) (human (Homo sapiens)) (UniProt P30530); assay: flow cytometry, A431 cells pre-incubated with 10 µg/mL Gas6 (competitor); mean (s.d.); less accurate due to low binding

Sequence of human AXL (full length, on cells) (human (Homo sapiens)) (P30530 26-894 limits assumed): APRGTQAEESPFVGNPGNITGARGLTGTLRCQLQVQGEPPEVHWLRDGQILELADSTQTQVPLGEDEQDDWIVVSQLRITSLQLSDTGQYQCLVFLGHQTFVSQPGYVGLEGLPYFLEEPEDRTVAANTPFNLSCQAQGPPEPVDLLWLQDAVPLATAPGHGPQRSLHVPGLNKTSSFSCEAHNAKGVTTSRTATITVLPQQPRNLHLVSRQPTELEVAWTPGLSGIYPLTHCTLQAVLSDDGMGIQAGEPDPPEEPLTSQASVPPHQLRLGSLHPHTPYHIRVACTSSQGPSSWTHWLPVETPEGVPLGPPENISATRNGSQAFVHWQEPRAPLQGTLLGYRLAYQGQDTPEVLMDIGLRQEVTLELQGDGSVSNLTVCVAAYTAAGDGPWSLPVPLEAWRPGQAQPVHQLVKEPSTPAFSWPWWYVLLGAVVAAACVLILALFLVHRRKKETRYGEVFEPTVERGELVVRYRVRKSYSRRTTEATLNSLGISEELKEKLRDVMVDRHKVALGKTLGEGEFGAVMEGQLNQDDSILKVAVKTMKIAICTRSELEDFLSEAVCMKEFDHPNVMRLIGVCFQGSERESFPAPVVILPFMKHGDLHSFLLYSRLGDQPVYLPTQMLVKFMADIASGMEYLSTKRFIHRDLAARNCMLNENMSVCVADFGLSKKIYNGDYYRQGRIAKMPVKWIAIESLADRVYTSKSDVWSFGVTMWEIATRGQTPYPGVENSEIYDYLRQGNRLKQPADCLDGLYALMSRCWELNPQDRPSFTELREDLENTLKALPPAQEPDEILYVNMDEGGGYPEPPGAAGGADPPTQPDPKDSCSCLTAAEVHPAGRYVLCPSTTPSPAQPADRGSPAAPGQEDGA

B1: YW327.6S2 (antibody, from another filing, V domains shown)
VH: EVQLVESGGGLVQPGGSLRLSCAASGFSLSGSWIHWVRQAPGKGLEWVGWINPYRGYAYYADSVKGRFTISADTSKNTAYLQMNSLRAEDTAVYYCAREYSGWGGSSVGYAMDYWGQGTLVTVSS
VL: DIQMTQSPSSLSASVGDRVTITCRASQDVSTAVAWYQQKPGKAPKLLIYSASFLYSGVPSRFSGSGSGTDFTLTISSLQPEDFATYYCQQSYTTPPTFGQGTKVEIK
EC50 [1]: 0.09 µg/mL
fold change of EC50 with Gas6 pre-incubation against without Gas6 [2]: 21 fold
maximal binding in presence of Gas6 (% of binding without Gas6) [2]: 19%
maximal binding in presence of Gas6 (% of binding in absence of Gas6) [3]: 41%
maximal binding in presence of Gas6 (% of binding in absence of Gas6) [4]: 41%
EC50 [5]: 1.9 µg/mL
EC50 [6]: 1.9 µg/mL
